Experimental data reported in publication PMC10611751 (2023).
Read-outs that look alike come from different tables or passages of the source.

T1: full-length β-catenin 1-781 (mouse, UniProt Q02248 1-781)
T1 chain: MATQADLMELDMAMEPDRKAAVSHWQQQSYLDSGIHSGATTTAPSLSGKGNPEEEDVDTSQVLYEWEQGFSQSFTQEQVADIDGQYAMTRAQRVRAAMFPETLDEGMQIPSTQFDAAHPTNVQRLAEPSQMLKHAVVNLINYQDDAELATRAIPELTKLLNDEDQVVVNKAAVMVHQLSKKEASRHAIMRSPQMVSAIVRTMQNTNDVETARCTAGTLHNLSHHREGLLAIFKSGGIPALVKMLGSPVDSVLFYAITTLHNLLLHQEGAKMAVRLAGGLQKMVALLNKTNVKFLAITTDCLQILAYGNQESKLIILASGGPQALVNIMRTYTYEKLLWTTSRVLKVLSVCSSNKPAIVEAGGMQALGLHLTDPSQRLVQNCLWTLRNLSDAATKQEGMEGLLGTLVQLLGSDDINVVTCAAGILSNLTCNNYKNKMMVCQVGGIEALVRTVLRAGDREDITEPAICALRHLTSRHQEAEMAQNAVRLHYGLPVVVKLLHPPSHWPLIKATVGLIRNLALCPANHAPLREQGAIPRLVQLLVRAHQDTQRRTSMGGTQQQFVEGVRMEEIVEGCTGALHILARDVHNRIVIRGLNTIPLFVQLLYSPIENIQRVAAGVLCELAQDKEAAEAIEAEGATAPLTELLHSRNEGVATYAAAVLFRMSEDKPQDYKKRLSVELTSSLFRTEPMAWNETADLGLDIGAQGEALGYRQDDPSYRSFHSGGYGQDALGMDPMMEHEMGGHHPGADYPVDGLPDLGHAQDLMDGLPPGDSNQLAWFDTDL

T2: Ankyrin-G 24 ANK repeats (residues 38-855) (UniProt O70511 38-855)
T2 chain: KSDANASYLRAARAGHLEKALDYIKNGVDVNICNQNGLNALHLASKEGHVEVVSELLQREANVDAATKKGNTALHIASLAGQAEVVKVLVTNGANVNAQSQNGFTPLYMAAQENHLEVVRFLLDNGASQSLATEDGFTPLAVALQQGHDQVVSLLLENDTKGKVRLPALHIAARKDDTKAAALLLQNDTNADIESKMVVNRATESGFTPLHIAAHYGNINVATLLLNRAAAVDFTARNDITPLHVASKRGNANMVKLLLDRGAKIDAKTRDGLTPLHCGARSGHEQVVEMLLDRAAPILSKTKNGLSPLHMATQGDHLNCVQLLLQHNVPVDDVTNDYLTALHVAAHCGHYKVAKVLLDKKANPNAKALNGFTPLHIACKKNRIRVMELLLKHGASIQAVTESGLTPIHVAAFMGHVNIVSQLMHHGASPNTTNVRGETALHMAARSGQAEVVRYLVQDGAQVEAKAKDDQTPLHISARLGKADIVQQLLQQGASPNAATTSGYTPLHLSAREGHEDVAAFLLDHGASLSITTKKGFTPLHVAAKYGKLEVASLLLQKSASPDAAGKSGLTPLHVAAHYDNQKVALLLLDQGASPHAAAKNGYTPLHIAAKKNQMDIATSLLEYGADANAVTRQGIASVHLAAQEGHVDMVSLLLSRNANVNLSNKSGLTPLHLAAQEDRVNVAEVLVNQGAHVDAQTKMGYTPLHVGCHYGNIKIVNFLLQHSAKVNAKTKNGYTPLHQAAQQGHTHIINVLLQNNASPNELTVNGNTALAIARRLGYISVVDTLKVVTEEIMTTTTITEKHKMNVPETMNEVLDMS


Columns and labels:
Assay in all cases: ITC
[1] = biological target: T1, full-length β-catenin 1-781
[2] = biological target: T2, Ankyrin-G 24 ANK repeats (residues …)
[3] = biological target: T1, full-length β-catenin 1-781

Row | Binder | Kd [2] [nM] | further results
1 | E-cadherin 776-884–AnkG R1-24 complex (complex) chain 1: not shown chain 2: KSDANASYLRAARAGHLEKALDYIKNGVDVNICNQNGLNALHLASKEGHVEVVSELLQREANVDAATKKGNTALHIASLAGQAEVVKVLVTNGANVNAQSQNGFTPLYMAAQENHLEVVRFLLDNGASQSLATEDGFTPLAVALQQGHDQVVSLLLENDTKGKVRLPALHIAARKDDTKAAALLLQNDTNADIESKMVVNRATESGFTPLHIAAHYGNINVATLLLNRAAAVDFTARNDITPLHVASKRGNANMVKLLLDRGAKIDAKTRDGLTPLHCGARSGHEQVVEMLLDRAAPILSKTKNGLSPLHMATQGDHLNCVQLLLQHNVPVDDVTNDYLTALHVAAHCGHYKVAKVLLDKKANPNAKALNGFTPLHIACKKNRIRVMELLLKHGASIQAVTESGLTPIHVAAFMGHVNIVSQLMHHGASPNTTNVRGETALHMAARSGQAEVVRYLVQDGAQVEAKAKDDQTPLHISARLGKADIVQQLLQQGASPNAATTSGYTPLHLSAREGHEDVAAFLLDHGASLSITTKKGFTPLHVAAKYGKLEVASLLLQKSASPDAAGKSGLTPLHVAAHYDNQKVALLLLDQGASPHAAAKNGYTPLHIAAKKNQMDIATSLLEYGADANAVTRQGIASVHLAAQEGHVDMVSLLLSRNANVNLSNKSGLTPLHLAAQEDRVNVAEVLVNQGAHVDAQTKMGYTPLHVGCHYGNIKIVNFLLQHSAKVNAKTKNGYTPLHQAAQQGHTHIINVLLQNNASPNELTVNGNTALAIARRLGYISVVDTLKVVTEEIMTTTTITEKHKMNVPETMNEVLDMS |  | Kd [1]: 80 nM
2 | E-cadherin CTD–β-catenin complex (complex) chain 1: not shown chain 2: MATQADLMELDMAMEPDRKAAVSHWQQQSYLDSGIHSGATTTAPSLSGKGNPEEEDVDTSQVLYEWEQGFSQSFTQEQVADIDGQYAMTRAQRVRAAMFPETLDEGMQIPSTQFDAAHPTNVQRLAEPSQMLKHAVVNLINYQDDAELATRAIPELTKLLNDEDQVVVNKAAVMVHQLSKKEASRHAIMRSPQMVSAIVRTMQNTNDVETARCTAGTLHNLSHHREGLLAIFKSGGIPALVKMLGSPVDSVLFYAITTLHNLLLHQEGAKMAVRLAGGLQKMVALLNKTNVKFLAITTDCLQILAYGNQESKLIILASGGPQALVNIMRTYTYEKLLWTTSRVLKVLSVCSSNKPAIVEAGGMQALGLHLTDPSQRLVQNCLWTLRNLSDAATKQEGMEGLLGTLVQLLGSDDINVVTCAAGILSNLTCNNYKNKMMVCQVGGIEALVRTVLRAGDREDITEPAICALRHLTSRHQEAEMAQNAVRLHYGLPVVVKLLHPPSHWPLIKATVGLIRNLALCPANHAPLREQGAIPRLVQLLVRAHQDTQRRTSMGGTQQQFVEGVRMEEIVEGCTGALHILARDVHNRIVIRGLNTIPLFVQLLYSPIENIQRVAAGVLCELAQDKEAAEAIEAEGATAPLTELLHSRNEGVATYAAAVLFRMSEDKPQDYKKRLSVELTSSLFRTEPMAWNETADLGLDIGAQGEALGYRQDDPSYRSFHSGGYGQDALGMDPMMEHEMGGHHPGADYPVDGLPDLGHAQDLMDGLPPGDSNQLAWFDTDL | 600 | 
3 | E-cadherin CTD–AnkG R1-24 complex (complex) chain 1: not shown chain 2: KSDANASYLRAARAGHLEKALDYIKNGVDVNICNQNGLNALHLASKEGHVEVVSELLQREANVDAATKKGNTALHIASLAGQAEVVKVLVTNGANVNAQSQNGFTPLYMAAQENHLEVVRFLLDNGASQSLATEDGFTPLAVALQQGHDQVVSLLLENDTKGKVRLPALHIAARKDDTKAAALLLQNDTNADIESKMVVNRATESGFTPLHIAAHYGNINVATLLLNRAAAVDFTARNDITPLHVASKRGNANMVKLLLDRGAKIDAKTRDGLTPLHCGARSGHEQVVEMLLDRAAPILSKTKNGLSPLHMATQGDHLNCVQLLLQHNVPVDDVTNDYLTALHVAAHCGHYKVAKVLLDKKANPNAKALNGFTPLHIACKKNRIRVMELLLKHGASIQAVTESGLTPIHVAAFMGHVNIVSQLMHHGASPNTTNVRGETALHMAARSGQAEVVRYLVQDGAQVEAKAKDDQTPLHISARLGKADIVQQLLQQGASPNAATTSGYTPLHLSAREGHEDVAAFLLDHGASLSITTKKGFTPLHVAAKYGKLEVASLLLQKSASPDAAGKSGLTPLHVAAHYDNQKVALLLLDQGASPHAAAKNGYTPLHIAAKKNQMDIATSLLEYGADANAVTRQGIASVHLAAQEGHVDMVSLLLSRNANVNLSNKSGLTPLHLAAQEDRVNVAEVLVNQGAHVDAQTKMGYTPLHVGCHYGNIKIVNFLLQHSAKVNAKTKNGYTPLHQAAQQGHTHIINVLLQNNASPNELTVNGNTALAIARRLGYISVVDTLKVVTEEIMTTTTITEKHKMNVPETMNEVLDMS |  | Kd [3]: 98 nM
4 | E-cadherin 776-884–β-catenin complex (protein) chain 1: not shown chain 2: MATQADLMELDMAMEPDRKAAVSHWQQQSYLDSGIHSGATTTAPSLSGKGNPEEEDVDTSQVLYEWEQGFSQSFTQEQVADIDGQYAMTRAQRVRAAMFPETLDEGMQIPSTQFDAAHPTNVQRLAEPSQMLKHAVVNLINYQDDAELATRAIPELTKLLNDEDQVVVNKAAVMVHQLSKKEASRHAIMRSPQMVSAIVRTMQNTNDVETARCTAGTLHNLSHHREGLLAIFKSGGIPALVKMLGSPVDSVLFYAITTLHNLLLHQEGAKMAVRLAGGLQKMVALLNKTNVKFLAITTDCLQILAYGNQESKLIILASGGPQALVNIMRTYTYEKLLWTTSRVLKVLSVCSSNKPAIVEAGGMQALGLHLTDPSQRLVQNCLWTLRNLSDAATKQEGMEGLLGTLVQLLGSDDINVVTCAAGILSNLTCNNYKNKMMVCQVGGIEALVRTVLRAGDREDITEPAICALRHLTSRHQEAEMAQNAVRLHYGLPVVVKLLHPPSHWPLIKATVGLIRNLALCPANHAPLREQGAIPRLVQLLVRAHQDTQRRTSMGGTQQQFVEGVRMEEIVEGCTGALHILARDVHNRIVIRGLNTIPLFVQLLYSPIENIQRVAAGVLCELAQDKEAAEAIEAEGATAPLTELLHSRNEGVATYAAAVLFRMSEDKPQDYKKRLSVELTSSLFRTEPMAWNETADLGLDIGAQGEALGYRQDDPSYRSFHSGGYGQDALGMDPMMEHEMGGHHPGADYPVDGLPDLGHAQDLMDGLPPGDSNQLAWFDTDL | 1200 | 
